This note sets out measurements from US20250282874A1 (SUZHOU TRANSCENTA THERAPEUTICS, published 2025).

Where two headings read alike, the source gives them in different places.

For experiment [1], the target named is T1, human PD-L1-Fc (human, UniProt Q9NZQ7 19-239).
T1 construct: also called hPD-L1-Fc; human PD-L1-Fc (Sino Biological, 70110-D02H); not shown: Fc part
The experiment is described as follows: BLI; PD-L1-Fc loaded on the sensor, scFv in solution.

Experiment [2] deals with T1, human PD-L1-Fc. The experiment is described as above. The source holds these as a separate data set.
The target in experiment [3] is T1, human PD-L1-Fc. Described as above. The source holds these as a separate data set.
Experiment [4] has as its target T1, human PD-L1-Fc. The experiment in a line: BLI; against H-CDR2-WT (G55A). On the technique in general: BLI is a label-free optical method that tracks binding on a fibre tip over time.
Experiment [5] addresses T1, human PD-L1-Fc. The experiment is described as follows: BLI; against L-CDR1-WT.
The target of another experiment is T2, human PD-L1-His (human, UniProt Q9NZQ7 19-238, limits assumed).
T2 construct: not shown: His tag
The experiment is described as follows: ELISA, human PD-L1-His coated, anti-human IgG-HRP, OD450. A general note: In an ELISA, binding on a coated surface is turned into a signal by an enzyme label.

Description for human PD-L1-His: Binding of the humanized antibodies were evaluated by an ELISA method. Briefly, human PD-L1-His was immobilized on the plate. […] Next, Goat pAb to human IgG-HRP and TMB were added for detection of binding at OD450 nm.

B1: 4B6-HgLa scFv (wild-type sequence for affinity maturation) (scFv)
scFv: DIQMTQSPSSLSASVGDRVTITCKASQNVGAAVAWYQQKPGKAPKLLIYSASNRYTGVPSRFSGSGSGTDFTLTISSLQPEDIATYYCQQYSNYPTFGQGTKLEIKGGGGSGGGGSGGGGSQVQLVQSGAEVKKPGASVKVSCKASGYVFTDYYMNWVRQAPGQSLEWMGDINPNNAGTSYNHKFKGRVTVTVDKSISTAYMELSRLRSDDTAVYYCVKWGDGPFAYWGQGTLVTVSS
notes: written VL-linker-VH; also called L-CDR1-WT; L-CDR2-WT
The Kd is the free concentration of one partner at which half of the binding sites on the other are occupied at equilibrium, for simple one-to-one binding. A high value points to a looser complex. In general, kon refers to a measure of how fast the partners come together. B1: the Kd in the experiment with human PD-L1-Fc [1] amounted to 28.2 nM; in the experiment with human PD-L1-Fc [2], 27.6 nM; with human PD-L1-Fc [3], 26.7 nM. Further, the kon with human PD-L1-Fc [1] came to 35800 M⁻¹ s⁻¹; in the experiment with human PD-L1-Fc [2], 38100 M⁻¹ s⁻¹; in the experiment with human PD-L1-Fc [3] it was 46300 M⁻¹ s⁻¹.

B2: 4B6 scFv variant H-CDR2-3 (scFv)
scFv: DIQMTQSPSSLSASVGDRVTITCKASQNVGAAVAWYQQKPGKAPKLLIYSASNRYTGVPSRFSGSGSGTDFTLTISSLQPEDIATYYCQQYSNYPTFGQGTKLEIKGGGGSGGGGSGGGGSQVQLVQSGAEVKKPGASVKVSCKASGYVFTDYYMNWVRQAPGQSLEWMGDINPNNAETLYNHKFKGRVTVTVDKSISTAYMELSRLRSDDTAVYYCVKWGDGPFAYWGQGTLVTVSS
notes: also called 4B6-H-CDR2-3
Molecule B2 gave a Fold increase in the experiment with human PD-L1-Fc [4] of 11 fold. For the same molecule, in the experiment with human PD-L1-Fc [3], the affinity, expressed as Kd, was 2.43 nM and the association rate constant (kon) stood at 116000 M⁻¹ s⁻¹.

B3: 4B6 scFv variant L-CDR1-3 (scFv)
scFv: DIQMTQSPSSLSASVGDRVTITCKASQNVKGAVAWYQQKPGKAPKLLIYSASNRYTGVPSRFSGSGSGTDFTLTISSLQPEDIATYYCQQYSNYPTFGQGTKLEIKGGGGSGGGGSGGGGSQVQLVQSGAEVKKPGASVKVSCKASGYVFTDYYMNWVRQAPGQSLEWMGDINPNNAGTSYNHKFKGRVTVTVDKSISTAYMELSRLRSDDTAVYYCVKWGDGPFAYWGQGTLVTVSS
notes: also called 4B6-L-CDR1-3
B3: the Fold increase in the experiment with human PD-L1-Fc [5] amounted to 10.1 fold. In the experiment with human PD-L1-Fc [1], this molecule showed a Kd of 2.78 nM and a kon of 91100 M⁻¹ s⁻¹.

B4: 4B6 scFv variant L-CDR1-2 (scFv)
scFv: DIQMTQSPSSLSASVGDRVTITCKASQNVPAAVAWYQQKPGKAPKLLIYSASNRYTGVPSRFSGSGSGTDFTLTISSLQPEDIATYYCQQYSNYPTFGQGTKLEIKGGGGSGGGGSGGGGSQVQLVQSGAEVKKPGASVKVSCKASGYVFTDYYMNWVRQAPGQSLEWMGDINPNNAGTSYNHKFKGRVTVTVDKSISTAYMELSRLRSDDTAVYYCVKWGDGPFAYWGQGTLVTVSS
notes: also called 4B6-L-CDR1-2
In turn, B4 showed a Fold increase with human PD-L1-Fc [5] of 4.96 fold. In the experiment with human PD-L1-Fc [1], this molecule displayed a dissociation constant Kd of 5.68 nM and a kon of 271000 M⁻¹ s⁻¹.

B5: 4B6 scFv variant H-CDR2-2 (scFv)
scFv: DIQMTQSPSSLSASVGDRVTITCKASQNVGAAVAWYQQKPGKAPKLLIYSASNRYTGVPSRFSGSGSGTDFTLTISSLQPEDIATYYCQQYSNYPTFGQGTKLEIKGGGGSGGGGSGGGGSQVQLVQSGAEVKKPGASVKVSCKASGYVFTDYYMNWVRQAPGQSLEWMGDINPNNAQTQYNHKFKGRVTVTVDKSISTAYMELSRLRSDDTAVYYCVKWGDGPFAYWGQGTLVTVSS
notes: also called 4B6-H-CDR2-2
In the experiment with human PD-L1-Fc [4], B5 returned a Fold increase of 11 fold. In the experiment with human PD-L1-Fc [3], this molecule showed a Kd of 2.42 nM and a kon of 101000 M⁻¹ s⁻¹.

B6: 4B6 scFv variant L-CDR1-1 (scFv)
scFv: DIQMTQSPSSLSASVGDRVTITCKASQNVGAIVAWYQQKPGKAPKLLIYSASNRYTGVPSRFSGSGSGTDFTLTISSLQPEDIATYYCQQYSNYPTFGQGTKLEIKGGGGSGGGGSGGGGSQVQLVQSGAEVKKPGASVKVSCKASGYVFTDYYMNWVRQAPGQSLEWMGDINPNNAGTSYNHKFKGRVTVTVDKSISTAYMELSRLRSDDTAVYYCVKWGDGPFAYWGQGTLVTVSS
notes: also called 4B6-L-CDR1-1
For B6, the Fold increase in the experiment with human PD-L1-Fc [5] is 4.08 fold. In the experiment with human PD-L1-Fc [1], this molecule showed a Kd of 6.91 nM and a kon of 41200 M⁻¹ s⁻¹.

B7: 4B6 scFv variant H-CDR2-5 (scFv)
scFv: DIQMTQSPSSLSASVGDRVTITCKASQNVGAAVAWYQQKPGKAPKLLIYSASNRYTGVPSRFSGSGSGTDFTLTISSLQPEDIATYYCQQYSNYPTFGQGTKLEIKGGGGSGGGGSGGGGSQVQLVQSGAEVKKPGASVKVSCKASGYVFTDYYMNWVRQAPGQSLEWMGDINPNNAQTVYNHKFKGRVTVTVDKSISTAYMELSRLRSDDTAVYYCVKWGDGPFAYWGQGTLVTVSS
notes: also called 4B6-H-CDR2-5
Take B7: in the experiment with human PD-L1-Fc [4], the Fold increase was 11.1 fold. In the experiment with human PD-L1-Fc [3], the Kd stood at 2.4 nM and the kon was determined as 102000 M⁻¹ s⁻¹.

B8: 4B6 scFv variant H-CDR2-4 (scFv)
scFv: DIQMTQSPSSLSASVGDRVTITCKASQNVGAAVAWYQQKPGKAPKLLIYSASNRYTGVPSRFSGSGSGTDFTLTISSLQPEDIATYYCQQYSNYPTFGQGTKLEIKGGGGSGGGGSGGGGSQVQLVQSGAEVKKPGASVKVSCKASGYVFTDYYMNWVRQAPGQSLEWMGDINPNNGLTSYNHKFKGRVTVTVDKSISTAYMELSRLRSDDTAVYYCVKWGDGPFAYWGQGTLVTVSS
notes: also called 4B6-H-CDR2-4
Turning to B8, the Fold increase with human PD-L1-Fc [4] came out at 6.03 fold. For the same molecule, in the experiment with human PD-L1-Fc [3], binding was put at a Kd of 4.43 nM and the kon was determined as 117000 M⁻¹ s⁻¹.

B9: 4B6 scFv variant H-CDR2-1 (scFv)
scFv: DIQMTQSPSSLSASVGDRVTITCKASQNVGAAVAWYQQKPGKAPKLLIYSASNRYTGVPSRFSGSGSGTDFTLTISSLQPEDIATYYCQQYSNYPTFGQGTKLEIKGGGGSGGGGSGGGGSQVQLVQSGAEVKKPGASVKVSCKASGYVFTDYYMNWVRQAPGQSLEWMGDINPNNADTMYNHKFKGRVTVTVDKSISTAYMELSRLRSDDTAVYYCVKWGDGPFAYWGQGTLVTVSS
notes: also called 4B6-H-CDR2-1
Molecule B9 returned a Fold increase with human PD-L1-Fc [4] of 7.6 fold. In addition, in the experiment with human PD-L1-Fc [3], the Kd came to 3.52 nM and the kon was 141000 M⁻¹ s⁻¹.

B10: Hu4B6_HbLa (antibody, human IgG1, V domains shown)
VH: QVQLVQSGAEVKKPGASVKVSCKASGYTFTDYYMNWVRQAPGQGLEWMGDINPNNGGTSYNHKFKGRVTVTVDTSISTAYMELSRLRSDDTAVYYCVKWGDGPFAYWGQGTLVTVSS
VL: DIQMTQSPSSLSASVGDRVTITCKASQNVGAAVAWYQQKPGKAPKLLIYSASNRYTGVPSRFSGSGSGTDFTLTISSLQPEDIATYYCQQYSNYPTFGQGTKLEIK
Usually EC50 stands for the midpoint of the concentration-response curve. A high value points to a need for much substance. Regarding B10, a half-maximal effect in the experiment with human PD-L1-His (EC50) was put at 2.38 nM.

B11: Hu4B6_HcLb (antibody, human IgG1, V domains shown)
VH: QVQLVQSGAEVKKPGASVKVSCKASGYVFTDYYMNWVRQAPGQGLEWMGDINPNNGGTSYNHKFKGRVTVTVDKSISTAYMELSRLRSDDTAVYYCARWGDGPFAYWGQGTLVTVSS
VL: DIQMTQSPSSLSASVGDRVTITCKASQNVGAAVAWYQQKPGKSPKLLIYSASNRYTGVPDRFSGSGSGTDFTLTISSLQPEDIATYYCQQYSNYPTFGQGTKLEIK
In the experiment with human PD-L1-His, B11 displayed an EC50 of 3.44 nM.

B12: Hu4B6_HbLb (antibody, human IgG1, V domains shown)
VH: QVQLVQSGAEVKKPGASVKVSCKASGYTFTDYYMNWVRQAPGQGLEWMGDINPNNGGTSYNHKFKGRVTVTVDTSISTAYMELSRLRSDDTAVYYCVKWGDGPFAYWGQGTLVTVSS
VL: DIQMTQSPSSLSASVGDRVTITCKASQNVGAAVAWYQQKPGKSPKLLIYSASNRYTGVPDRFSGSGSGTDFTLTISSLQPEDIATYYCQQYSNYPTFGQGTKLEIK
Consider B12, for which it took 2.81 nM to reach a half-maximal effect with human PD-L1-His (EC50).

B13: Hu4B6_HaLa (antibody, human IgG1, V domains shown)
VH: QVQLVQSGAEVKKPGASVKVSCKASGYTFTDYYMNWVRQAPGQGLEWMGDINPNNGGTSYNHKFKGRVTVTVDTSISTAYMELSRLRSDDTAVYYCARWGDGPFAYWGQGTLVTVSS
VL: DIQMTQSPSSLSASVGDRVTITCKASQNVGAAVAWYQQKPGKAPKLLIYSASNRYTGVPSRFSGSGSGTDFTLTISSLQPEDIATYYCQQYSNYPTFGQGTKLEIK
As to B13, in the experiment with human PD-L1-His, the concentration giving a half-maximal response (EC50) came out at 5.16 nM.

B14: Hu4B6_HdLb (antibody, human IgG1, V domains shown)
VH: QVQLVQSGAEVKKPGASVKVSCKASGYVFTDYYMNWVRQAPGQSLEWMGDINPNNGGTSYNHKFKGRVTVTVDKSISTAYMELSRLRSDDTAVYYCVKWGDGPFAYWGQGTLVTVSS
VL: DIQMTQSPSSLSASVGDRVTITCKASQNVGAAVAWYQQKPGKSPKLLIYSASNRYTGVPDRFSGSGSGTDFTLTISSLQPEDIATYYCQQYSNYPTFGQGTKLEIK
On to B14, for which, in the experiment with human PD-L1-His, the midpoint of the response, the EC50, lay at 1.47 nM. Against the preceding molecule, the EC50 is about 3.5-fold lower.

B15: Hu4B6_HcLa (antibody, human IgG1, V domains shown)
VH: QVQLVQSGAEVKKPGASVKVSCKASGYVFTDYYMNWVRQAPGQGLEWMGDINPNNGGTSYNHKFKGRVTVTVDKSISTAYMELSRLRSDDTAVYYCARWGDGPFAYWGQGTLVTVSS
VL: DIQMTQSPSSLSASVGDRVTITCKASQNVGAAVAWYQQKPGKAPKLLIYSASNRYTGVPSRFSGSGSGTDFTLTISSLQPEDIATYYCQQYSNYPTFGQGTKLEIK
In the experiment with human PD-L1-His, B15 had an EC50 of 5.74 nM.

B16: Hu4B6_HaLb (antibody, human IgG1, V domains shown)
VH: QVQLVQSGAEVKKPGASVKVSCKASGYTFTDYYMNWVRQAPGQGLEWMGDINPNNGGTSYNHKFKGRVTVTVDTSISTAYMELSRLRSDDTAVYYCARWGDGPFAYWGQGTLVTVSS
VL: DIQMTQSPSSLSASVGDRVTITCKASQNVGAAVAWYQQKPGKSPKLLIYSASNRYTGVPDRFSGSGSGTDFTLTISSLQPEDIATYYCQQYSNYPTFGQGTKLEIK
Molecule B16 gave an EC50 with human PD-L1-His of 6.26 nM.

B17: Chimeri 4B6 (antibody, V domains shown)
VH: EVQLQQSGPELVKPGASVKISCKASGYVFTDYYMNWVKQSHGKSLEWIGDINPNNGGTSYNHKFKGKATVTVDKSSRTAYMELLSLTSEDSAVYYCVKWGDGPFAYWGQGTLVTVSA
VL: DIVMTQSQKFMSTSVGDRVSITCKASQNVGAAVAWYQQKPGQSPKLLIYSASNRYTGVPDRFTGSGSGTDFTLTISNMQSEDLADYFCQQYSNYPTFGSGTKLGIK
notes: spelling as printed; also called chimeric 4B6; mouse/chimeric antibody 4B6
As for B17, the EC50 with human PD-L1-His came to 2.05 nM. Compared with the last molecule, the EC50 is about 3.1-fold lower.
